Measurements as given in patent US6685945.

What was measured:
[1] = test system: OmpL1-PhoA fusion protein [phosphatase: P00634]
[2] = molecular target: OmpL1, 31 kD outer membrane protein of Leptospira alstoni (native protein) (Leptospira alstoni serovar grippotyphosa); experiment: immunoelectron microscopy of intact L. alstoni, protein G-colloidal gold (control serum)

Chain of OmpL1-PhoA fusion protein [phosphatase: P00634] (P00634 27-471): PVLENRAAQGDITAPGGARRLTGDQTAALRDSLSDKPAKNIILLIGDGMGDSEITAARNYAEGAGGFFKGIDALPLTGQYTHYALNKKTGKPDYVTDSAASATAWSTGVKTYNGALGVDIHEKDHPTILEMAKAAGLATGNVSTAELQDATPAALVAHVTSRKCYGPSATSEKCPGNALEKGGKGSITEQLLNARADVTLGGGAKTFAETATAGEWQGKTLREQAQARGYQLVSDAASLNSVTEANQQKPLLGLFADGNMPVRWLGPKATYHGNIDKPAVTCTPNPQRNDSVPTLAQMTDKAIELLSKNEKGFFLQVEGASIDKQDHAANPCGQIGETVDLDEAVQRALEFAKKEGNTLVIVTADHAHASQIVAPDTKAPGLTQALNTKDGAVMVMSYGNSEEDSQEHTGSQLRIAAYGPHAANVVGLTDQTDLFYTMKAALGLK

| Substance | cleavage of the OmpL1-PhoA fusion protein in E. coli IT41 [1] | gold particles per twenty organisms (particles per twenty organisms) [2] |
| --- | --- | --- |
| E. coli leader peptidase 1 (strain IT41, temperature sensitive mutation) | Cleavage of the OmpL1-PhoA fusion protein was demonstrated at the permissive temperature of 32° C., but not at the restrictive temperature of 37 °C |  |
| preimmune serum from the same rabbit as the anti-OmpL1 antiserum (antibody) |  | 1 |
